Data taken from the nanobody polyreactivity screen of Harvey et al. (2022).

Assay: yeast display, Sf9 membrane polyspecificity reagent, FACS + sequencing; frameworks hold sequencing errors
Outline: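 Genes from sorted yeast were amplified by colony PCR, read by MiSeq 2 × 250 sequencing and filtered on CDR length. These cells carried a synthetic nanobody library in Saccharomyces cerevisiae BJ5465 and were sorted by FACS into low and high (top ~1%) gates on anti-HA and streptavidin fluorescence. Polyreactivity is labelled according to the gate of origin.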

Row | Sequence | polyreactivity (PSR sort gate)
1 | QVQLVESGGGLVQAGGSLRLSCAASGSIFGYYAMGWYRQAPGKERELVAAISVSGGSTYYADSVKGRFTISRDNAKNTVYLQMNSLKPEDTAVYYCKKVQGSWRVPYYYWGQGTQVTVSS | high polyreactivity
2 | QVQLLETGRGLVQAGGSLRLSCAPSGITFRYYAMGWYRQAPGQERELVAAITRSGGSTYYADSVKGRFTLSRYNAKNTVYLQMNSLKPEDTAVYYCAAQPVSRHTGTFYRSNGYDYWGQVTQVTVSS | high polyreactivity
3 | QVQLVESGGGLVQAGGSLRLSSAASGNTFDSKAMGWYRQAPGKERELVAGISQGDGSTYADSVKGRFTISRDNAKNTVYFQMNSLKPEDTAVYYCAADRDYIMDYWGQGTQVTVSS | high polyreactivity
4 | QVQVVESGGGLVQAGGSLRLSCAASGFIFNTHAMGWYRQAPGKERELVAAITWTGDSTYYADSVKGRFTISRDYAKNTVYLQMNSLKPEDTAVYYCNAATGDWETSIWTYPFWAEMYYWGQGTQVNVSS | low polyreactivity
5 | QVQLEESGGGLVQAGGSLRLSCAASGRNFLYNAMGWYRQAPGKERELVAAITASGGTTYYADSVKGRFTISRDNAKNNVYLQMNSLKPEDTAVYYCNAYSYSGERYYWGQGTQVTVSS | high polyreactivity
6 | QVQLVESGGGLVQAGGSLRLSCAASGRTFSYYAMGWYRQAPGKERELVARITYRGGRTYYADSVKGRFTISRDHAKNTVYLQMNSLKPEDTAVYYCNADAIYKRGGRDYWGQGTQVTVSS | high polyreactivity
7 | QVQLGESGGGLVQAGGSHRLICAATASTLGGYAMGWYRQAPGTERELVAAITRSGGSTYYADSVKGRFTISRDNAKNTVYLQMNSLKPEDTSVNYCGADRYSYFNIGYDYWGQGTQVTVSS | low polyreactivity
8 | QVQLVESGGGLVQAGGSLRLSCDASGSTIYPYAMGWYRQAPGKERELVAAISSGGRTYYADSVKGRFTISRDNAKTTVYLQMNSLKPEDTAGYYCATYYYGWYTIDFYYWGQGTQVTVSS | high polyreactivity
9 | QVQLVESGGGLVQAGGSLRLSCAASGFIFYSYAMGWYRQAPGKEREFVASICGGTGSTYYADSVKGRFTISRDNAKNTVYLQMNSLIPEDTAVYYCNARIVHSFRYDYWGQGTQVTVSS | low polyreactivity
10 | QVQLVESGGGLVQAGGSLRLSCAASGSIFGNYVMGWYRQAPGKERELVAAITSDGSTYYADSVKGRFTISRDNAKNTVYLQMNSLKPEDTAVYYCNAVYEGLQSRWYKGGLYSFDYWGQGTQVTVSS | low polyreactivity
11 | QVQLVESGGGLVQAGGSLRLSCAASGSTSYDNAMGWYRQAPGKERELVASISSDGSTNYADSVKGRFTISRDNAKNTVYLQMNSLKPEDTAVYYCNVEVTRGLSHDPEYDYWGQGTQVTVSS | low polyreactivity
12 | QVQLVESGGGLVQAGGRLRLSCAASGRIYTAYYAMGWYIQAPGKERELVASISSSGTSTYADSVKGRFTISRDNAKNTVYLQMNSLKPEDTAVYYCATRKLRTRRYDYGYWGQGTQVTVSS | low polyreactivity
13 | QVQLVESGGGLVQAGGSLRLSCAASGSTLSQYAMGWYRQAPGKERELVAAISGGGRTYYADSVKGRFTISRDNAKNTVYLQMNSLKPEDTAVYYCAKVRLKKGTRDSYDYWGQGTQVTVSS | high polyreactivity
14 | QVQLVESGGGLVQAGGSLRLSCAASGLIFSVNAMGWYRQAPGKERELVAAITWSSGRTYYADSVKGRFTISRDNAKNTVYLQMNSLKPEDTAVYYCAAVSYWYGQMYYWGHGTQVTVSS | high polyreactivity
15 | QVQLVESGGGLVQAGGSLRLSCAASGSIFSGYAMGWYRQAPGKERELVAAINSNGGRTYYADSVKGRFTISRDNAKNTVYLQMNSLKPEDTAVYYCNAAKRGWYYDYYYWGQGTQVTVSS | high polyreactivity
16 | QVQLVESGGGLVQAGGSLRLSCAASGSIFHGYAMGWYRQAPGKERELVAAISSTGGSTYYADSVKGRFTISRDNAKNTVYLQMNSLKPEDTAVYYCAAYYYVGYRARRYDYWGQGTQVTVSS | high polyreactivity
17 | QVQLVESGGGLVQAGGSLRLSCAASGSIHFEYMGWYRQAPGKERELVAAITIRDGGTYYADSVKGRFTISRDNAKNTVYLQMNSLKPEDTAVYYCNADFSGGWRYDYWGQGTQVTVSS | low polyreactivity
